Measurements published in paper PMC5004176, “The antifungal plant defensin AtPDF2.3 from Arabidopsis thaliana blocks potassium channels” (Scientific Reports, 2016).
Where two headings read alike, the source gives them in different places. Ends that are not written are not given here.

What was measured:
[1] = system: Kv1.2 channels; assay: Two-electrode voltage-clamp on Kv1.2 expressed in X. laevis oocytes; settings: for IC50: read-out: IC50 for Kv1.2, two-electrode voltage-clamp, X. laevis oocytes, concentration-response curve fitted with Hill equation, mean ± standard error, n ≥ 3
Experimental: (§1) For the expression of the voltage-gated potassium channels (rKv1.1, rKv1.2, hKv1.3, rKv1.4, rKv1.5, rKv1.6, Shaker IR, hKv3.1, rKv4.3, and hERG) in Xenopus laevis oocytes, the linearized plasmids were transcribed using the T7 or SP6 mMESSAGE-mMACHINE transcription kit (Ambion). The harvesting of stage V–VI oocytes from an anaesthetized female X. laevis frog was previously described[59]. Oocytes were injected with 50 nL of cRNA at a concentration of 1 ng/nL using a micro-injector (Drummond Scientific, USA). The oocytes were incubated in a solution containing (in mM): NaCl, 96; KCl, 2; CaCl2, 1.8; MgCl2, 2 and HEPES, 5 (pH 7.4), supplemented with 50 mg/L gentamycin sulfate.
(§2) Two-electrode voltage-clamp recordings were performed at room temperature (18–22 °C) using a Geneclamp 500 amplifier (Molecular Devices, USA) controlled by a pClamp data acquisition system (Axon Instruments, USA). Whole cell currents from oocytes were recorded 1–4 days after injection. Bath solution composition was ND96 (in mM): NaCl, 96; KCl, 2; CaCl2, 1.8; MgCl2, 2 and HEPES, 5 (pH 7.4) or HK (in mM): NaCl, 2; KCl, 96; CaCl2, 1.8; MgCl2, 2 and HEPES, 5 (pH 7.4). Voltage and current electrodes were filled with 3 M KCl. Resistances of both electrodes were kept between 0.7 and 1.5 MΩ. The elicited currents were filtered at 0.5 kHz and sampled at 2 kHz (for potassium currents) or filtered at 2 kHz and sampled at 20 kHz (for sodium currents) using a four-pole low-pass Bessel filter. Leak subtraction was performed using a -P/4 protocol. Kv1.1–Kv1.6 and Shaker currents were evoked by 250 ms depolarizations to 0 mV followed by a 250 ms pulse to −50 mV, from a holding potential of −90 mV. Current traces of hERG channels were elicited by applying a +40 mV prepulse for 2 s followed by a step to −120 mV for 2 s. […] In order to investigate the current–voltage relationship, current traces were evoked by 10 mV depolarization steps from a holding potential of −90 mV. To assess the concentration dependency of the toxin induced inhibitory effects, a concentration–response curve was constructed, in which the percentage of current inhibition was plotted as a function of toxin concentration. Data were fitted with the Hill equation: y = 100/[1 + (IC50/[toxin])^h], were y is the amplitude of the toxin-induced effect, IC50 is the toxin concentration at half-maximal efficacy, [toxin] is the toxin concentration, and h is the Hill coefficient. GV curves were calculated from IV relationships as follows: gK = IK/(Em−EK) with EK = (RT/zF)ln[K #0]o/[K #0]i. In these equations gK represents the conductance, IK the potassium current, Em the membrane potential, EK the reversal potential, R the gas constant (8.31 J/K mol), T the temperature, z the charge of the ion (for K+ ions: z = 1), F the Faraday’s constant (96.500 C/mol), [K #0]o and [K #0]i respectively are the extracellular and intracellular K+ ion concentrations. The values of IK or gK were plotted as function of voltage and fitted using the Boltzmann equation: gK/gmax = [1 + exp(Vg−V)/k]−1, were gmax represents maximal gK, Vg is the voltage corresponding to half-maximal conductance, and k is the slope factor. Comparison of two sample means was made using a paired Student’s t test (P < 0.05). All data represent at least three independent experiments (n ≥ 3) and are presented as mean ± standard error.

[2] = system: Kv1.6 channels; assay: Two-electrode voltage-clamp on Kv1.6 expressed in X. laevis oocytes; settings: for IC50: read-out: IC50 for Kv1.6, two-electrode voltage-clamp, X. laevis oocytes, concentration-response curve fitted with Hill equation, mean ± standard error, n ≥ 3
Experimental: as §1, §2

[3] = target: voltage-gated potassium channel rKv1.2 (rat (from the prefix in rKv1.2)) (UniProt P63142)
[4] = target: voltage-gated potassium channel rKv1.6 (rat (from the prefix in rKv1.6)) (UniProt P17659)
[5] = target: voltage-gated potassium channel rKv1.2 (rat (from the prefix in rKv1.2)) (UniProt P63142); remark: listed apart in the source
[6] = target: voltage-gated potassium channel rKv1.6 (rat (from the prefix in rKv1.6)) (UniProt P17659); remark: listed apart in the source

Chain of voltage-gated potassium channel rKv1.6 (rat (from the prefix in rKv1.6)) (P17659 whole entry): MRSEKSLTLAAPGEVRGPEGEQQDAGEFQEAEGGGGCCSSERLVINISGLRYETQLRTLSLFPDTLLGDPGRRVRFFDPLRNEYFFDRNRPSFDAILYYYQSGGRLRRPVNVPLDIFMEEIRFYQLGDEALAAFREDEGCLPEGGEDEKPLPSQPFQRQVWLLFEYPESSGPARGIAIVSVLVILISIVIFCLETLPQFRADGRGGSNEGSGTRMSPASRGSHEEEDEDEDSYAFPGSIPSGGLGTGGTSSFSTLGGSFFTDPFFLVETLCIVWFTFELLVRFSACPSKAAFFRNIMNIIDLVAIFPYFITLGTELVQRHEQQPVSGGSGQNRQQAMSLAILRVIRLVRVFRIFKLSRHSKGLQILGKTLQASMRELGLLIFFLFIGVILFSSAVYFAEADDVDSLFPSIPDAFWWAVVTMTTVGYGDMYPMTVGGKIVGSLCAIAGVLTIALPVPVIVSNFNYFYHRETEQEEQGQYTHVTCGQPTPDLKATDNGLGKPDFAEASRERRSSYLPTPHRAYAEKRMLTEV
Chain of voltage-gated potassium channel rKv1.2 (rat (from the prefix in rKv1.2)) (P63142 whole entry): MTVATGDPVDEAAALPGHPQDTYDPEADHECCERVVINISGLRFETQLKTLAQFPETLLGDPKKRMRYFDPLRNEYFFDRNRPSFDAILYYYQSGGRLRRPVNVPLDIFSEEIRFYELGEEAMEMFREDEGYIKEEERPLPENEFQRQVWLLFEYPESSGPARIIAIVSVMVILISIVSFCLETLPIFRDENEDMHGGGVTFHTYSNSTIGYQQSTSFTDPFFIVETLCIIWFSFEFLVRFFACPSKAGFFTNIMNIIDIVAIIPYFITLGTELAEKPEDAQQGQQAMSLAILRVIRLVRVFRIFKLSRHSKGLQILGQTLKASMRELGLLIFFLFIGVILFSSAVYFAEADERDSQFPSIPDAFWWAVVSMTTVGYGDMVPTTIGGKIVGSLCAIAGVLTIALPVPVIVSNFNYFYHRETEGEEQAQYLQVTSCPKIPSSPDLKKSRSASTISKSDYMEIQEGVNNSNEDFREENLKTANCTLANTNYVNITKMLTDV

Row | Molecule | IC50 [1] [nM] | IC50 [2] [nM] | IC50 of inhibition of Kv1.2 potassium current, two-electrode voltage clamp on X. laevis oocytes, concentration-response curve [5] [nM] | IC50 of inhibition of Kv1.6 potassium current, two-electrode voltage clamp on X. laevis oocytes, concentration-response curve [6] [nM] | other results
1 | AtPDF2.3 [K33A][G36N]: rAtPDF2.3 variant containing only Asparagine36 (CXN toxin signature) (RTCESKSHRFKGPCVSTHNCANVCHNEGFGGGACRNFRRRCYCTRHC; ends and bridges not checked; cysteine pairing not given here) | 1380 ± 133 | 366 ± 114 |  |  | 
2 | rAtPDF2.3[G36N]: rAtPDF2.3 variant with both Lysine33 and Asparagine36 (KCXN toxin signature) (RTCESKSHRFKGPCVSTHNCANVCHNEGFGGGKCRNFRRRCYCTRHC; ends and bridges not checked; cysteine pairing not given here) | 611 ± 91 | 138 ± 38 |  |  | fold decrease of Kv1.2 IC50 as compared to rAtPDF2.3 ([1]; ratio of IC50 values): 2.1 fold; fold decrease of Kv1.6 IC50 as compared to rAtPDF2.3 ([2]; ratio of IC50 values): 7.1 fold
3 | rAtPDF2.3[K33A]: rAtPDF2.3 variant with neither Lysine33 nor Asparagine36, devoid of the toxin signature (RTCESKSHRFKGPCVSTHNCANVCHNEGFGGGACRGFRRRCYCTRHC; ends and bridges not checked; cysteine pairing not given here) | 2040 ± 383 | 3500 ± 235 |  |  | 
4 | recombinant Arabidopsis thaliana plant defensin AtPDF2.3 (from UniProt Q9ZUL7 31-77) (peptide) |  |  |  |  | IC50 of inhibition of Kv1.2 potassium current, two-electrode voltage clamp on X. laevis oocytes, concentration-response curve [3]: 1300 nM; inhibition of the Kv1.2 potassium current by 2 μM rAtPDF2.3 in HK solution [3]: 66%; inhibition of the Kv1.2 potassium current by 2 μM rAtPDF2.3 in ND96 solution (data not shown) [3]: 59%; IC50 of inhibition of Kv1.6 potassium current, two-electrode voltage clamp on X. laevis oocytes, concentration-response curve [4]: 978 nM
5 | RTCESKSHRFKGPCVSTHNCANVCHNEGFGGGACRGFRRRCYCTRHC (not fully specified; cysteine pairing not given here) [rAtPDF2.3[K33A]] |  |  | 2040 | 3500 | 
6 | RTCESKSHRFKGPCVSTHNCANVCHNEGFGGGKCRNFRRRCYCTRHC (not fully specified; cysteine pairing not given here) [rAtPDF2.3[G36N]] |  |  | 611 | 138 | 
7 | RTCESKSHRFKGPCVSTHNCANVCHNEGFGGGACRNFRRRCYCTRHC (not fully specified; cysteine pairing not given here) [rAtPDF2.3[K33A][G36N]] |  |  | 1380 | 366 | 
